Source: article PMC5673899, “Structural basis for receptor recognition of pollen tube attraction peptides” (Nature Communications, 2017)
“Also recorded” adds a separate entry of the source.

Legend:
[1] = system: prk6 pollen tubes transformed with PRK6 N239A; experiment: Gelatin-beads assay, prk6 pollen tubes transformed with N239A PRK6; format: cell-based, Arabidopsis; details: beads with 250 nM wild-type AtLURE1.2; 10–23 pollen tubes per assay, three assays
Method: (§1) Attraction activities of mutant AtLURE1.2 peptides were examined for semi-in-vivo pollen tubes growing through cut, pollinated pistils by gelatin-beads assay and wavy assay, [20]. For the gelatin-beads assay, pollen tubes were grown on solid pollen germination medium poured into a mold made with 1-mm thick silicone rubber and cover glasses. After hand-pollination, the topside cover glass was removed and the medium was covered with hydrated silicone oil (KF-96–100CS; Shin-Etsu). Attraction of pollen tubes toward the peptide was evaluated using AtLURE1 peptide containing gelatine beads under an inverted microscope (IX71, Olympus) equipped with a micro-manipulator (Narishige). For the AtLURE1-responsive wavy assay, the purified AtLURE1.2 peptide was added to solid pollen germination medium, which was melted at 70 °C and then cooled to a certain degree. The mixture was mixed by vortexing and poured into the mold. Pollen tubes of each genotype were grown through cut styles, as mentioned above. Each peptide (25 μM in 10 mM Bis-Tris (pH 6.0) and 100 mM NaCl) was diluted to 250 nM by cultivation medium in both assays. To examine reactivity of PRK6 mutants to AtLURE1.2, constructs for PRK6 mutants, D234A, N239A, and ΔN239I240, were generated by site-directed mutagenesis from a wild-type PRK6 vector, pPZP221-pPRK6::PRK6-mRuby2 (ref. [20]). […]

[2] = system: prk6 pollen tubes transformed with PRK6 N239A; experiment: Wavy assay, prk6 pollen tubes transformed with N239A PRK6; format: cell-based, Arabidopsis; details: 250 nM wild-type AtLURE1.2 in medium
Method: as §1, with “assays.” for “assays. To examine reactivity of PRK6 mutants to AtLURE1.2, constructs for PRK6 mutants, D234A, N239A, and ΔN239I240, were generated by site-directed mutagenesis from a wild-type PRK6 vector, pPZP221-pPRK6::PRK6-mRuby2 (ref. [20]).”
pollen tubes. Fluorescence is from mRuby2 fused to the C-terminal of PRK6 receptors, showing that all of mutant PRK6 receptors localize normally to the plasma membrane of the pollen tube tip. […]

AtPRK3^LRR = experiment: Gel filtration assay with AtPRK3^LRR; format: binding, Arabidopsis; details: 4 °C 30 min, 10 mM Bis-Tris pH 6.0, 100 mM NaCl
Source text: (§2) The genes of AtPRK3 ^LRR (residues 1–241), AtPRK4 ^LRR (residues 1–277), AtPRK5 ^LRR (residues 1–279), AtPRK6 ^LRR (residues 1–262), MIK1 ^LRR (residues 1–633), MIK2 ^LRR (residues 1–707) were amplified from Arabidopsis cDNA library by PCR and cloned into pFastBac-1 vector with a C-terminal 6 × His-tag. Their identities were confirmed by sequencing. The mature form of AtLURE1.1 (residues 20–94), AtLURE1.2 (residues 20–90), AtLURE1.3 (residues 21–91), and AtLURE1.4 (residues 20–90) were cloned into pFastBac-1 vector, with a modified N-terminal hemolin signal peptide and 6 × His-SUMO tag. Point mutation constructs were generated by QuickChange Site-Directed Mutagenesis Kit (Strategene). All the proteins were expressed using the Bac-to-Bac baculovirus expression system (Invitrogen) in High Five cells at 22 °C. One liter of High Five cells (2.0 × 10^6 cells mL^−1) cultured in the medium from Expression Systems was infected with 25 ml recombinant baculovirus and the media was collected after 72 h of infection. Secreted LRR proteins were purified using Ni-NTA (Novagen) and size-exclusion chromatography (Hiload 200, GE Healthcare) in buffer containing 10 mM Bis-Tris pH 6.0 and 100 mM NaCl. The His-SUMO tag of the AtLURE proteins was removed by Prescission Protease at 4 °C overnight in buffer containing 25 mM Tris pH 8.0 and 150 mM NaCl. […]

AtPRK6^LRR D234A = experiment: In vitro pull-down with AtPRK6^LRR mutant D234A; format: binding, Arabidopsis thaliana; details: wild-type AtLURE1.2
Source text: as §2, with “NaCl.” for “NaCl. The His-SUMO tag of the AtLURE proteins was removed by Prescission Protease at 4 °C overnight in buffer containing 25 mM Tris pH 8.0 and 150 mM NaCl.”
(§3) The purified His-tagged ectodomains of AtPRK proteins and MIK1, 2 were used to pull-down the AtLURE1.2 peptide. […] All the eluted samples were analyzed by SDS-PAGE and visualized by Coomassie blue staining. […]

AtPRK6^LRR ΔN239I240 = experiment: In vitro pull-down with AtPRK6^LRR mutant with Asn239 and Ile240 deleted; format: binding, Arabidopsis thaliana; details: wild-type AtLURE1.2
Source text: as §2, with “NaCl.” for “NaCl. The His-SUMO tag of the AtLURE proteins was removed by Prescission Protease at 4 °C overnight in buffer containing 25 mM Tris pH 8.0 and 150 mM NaCl.”
as §3

B1: AtLURE1.2: mature form of AtLURE1.2 (residues 20–90), defensin-like cysteine-rich peptide expressed in insect cells (protein)
chain: TLINGSSDEERTYSFSPTTSPFDPRSLNQELKIGRIGYCFDCARACMRRGKYIRTCSFERKLCRCSISDIK
modifications: left off: His6, N-terminal, cleaved | SUMO, N-terminal, cleaved
notes: mature form of AtLURE1.2 (residues 20–90), defensin-like cysteine-rich peptide expressed in insect cells
[1]
  pollen tube attraction / reactivity: comparable reactivity to the wild-type PRK6
[2]
  wavy and branched pollen tube behavior: severe wavy and branched behavior; also recorded: comparable reactivity to the wild-type PRK6
AtPRK3^LRR
  interaction in gel filtration: none of the purified AtPRK3^LRR, MIK1^LRR or MIK2^LRR proteins showed detectable interaction
AtPRK6^LRR D234A
  interaction in pull-down assay: greatly compromised; also recorded: significantly compromised
AtPRK6^LRR ΔN239I240
  interaction in pull-down assay: A similar effect was observed; also recorded: significantly compromised
